Results: patent US20240218024A1, “METHODS AND COMPOSITIONS FOR TREATMENT OF VIRAL INFECTION” (TECHNION RESEARCH & DEVELOPMENT FOUNDATION LIMITED, priority 2021, published 2024)

Test system: BL21-DE3 E. coli cells
Experiment: slncRNA and tdPCP-mCherry expression in bacteria (puncta, burst analysis, flow cytometry)
Type: cell-based
Conditions: slncRNA co-expressed with tdPCP-mCherry, overnight induction

B1: PCP-4×/QCP-5×: class II slncRNA, four native PCP binding sites and five native QB coat protein hairpins (SEQ ID NO: 29) (nucleic acid)
chain: GAGAAACCTAGGCGATTATGACGTTATTCTACTTTGATTGTGATGCATGTCTAAGACAGCATCGCCTGCTGGTCGTGACTAAGGAGTTTATATGGAAACCCTTACGAGACAATGCTACCTTACCGGTCGGGCCCACTTGTTTTTACCCATGATGCATGTCTAAGACAGCATCGCCTGCTGGTCGTGACTAAGGAGTTTATATGGAAACCCTTAGAAACAGCCGTCGCCTTGAAGCCGAGAACAATGCATGTCTAAGACAGCATATGGATTGCCTGTCTGTTAAGGAGTTTATATGGAAACCCTTACATCAGGCTTCGCAGTATGCAACGCTTGCGATGCATGTCTAAGACAGCATTTCACCGCTTTCCTAAGTAAGGAGTTTATATGGAAACCCTTAGTACTAACTCGCAGATGCATGTCTAAGACAGCATCAGAAACGTCACGTCCTGGCTGTCGA
puncta formation in cells: formation of bright puncta at the cell poles
